Tests used:
LRP6 [1] = target: T1, LRP6 (Homo sapiens, UniProt O75581); assay: LRP6 folding: western blot of ER and mature LRP6 forms in HEK293 cells with Mesd coexpression; format: cell-based; parameters: plasmid pCS-Myc-hLRP6 containing the full-length human LRP6 cDNA; HA; expressed in transfected cells; settings: HEK293 cells transiently transfected with LRP6 cDNA and Mesd or MesdΔC cDNA
Procedure: To examine the expression of the LDLR family members, cells cultured in six-well plates were lysed with 0.5 ml lysis buffer (phosphate-buffered saline containing 1% Triton X-100 and 1 mM PMSF) at 4° C. for 30 minutes. Equal quantities of protein were subjected to SDS-PAGE under non-reducing conditions. Following transfer to Immobilon-P membrane, successive incubations with primary antibody and horseradish peroxidase-conjugated secondary antibody were carried out for 60 minutes at room temperature. The immunoreactive proteins were then detected using the ECL system.
To examine the role of this C-terminal region of Mesd on receptor folding, a Mesd mutant (Mesd_C), which lacks the C-terminal region (amino acids 156-191) but retains the endoplasmic reticulum retention signal (REDL) was generated (FIG. 3A). Next, a potential role for MesdΔC on LRP6 folding was evaluated. HEK293 cells were transiently transfected with cDNA for the LRP6 with cotransfection of control vector, or cDNAs for Mesd or MesdΔC. The steady-state levels of LRP6 were analyzed by western blotting with the anti-MYC antibody (FIG. 5A). […] In FIG. 5A, HEK293 cells were transiently transfected with the indicated cDNAs. Cell lysates were analyzed by SDS-PAGE under reducing conditions and western blotted with anti-FLAG or anti-HA antibodies as indicated.

LRP6 [2] = target: T1, LRP6; assay: ^125I-RAP binding to LRP6-transduced HT1080 cells and control cells; parameters: plasmid pCS-Myc-hLRP6 containing the full-length human LRP6 cDNA; HA; expressed in transfected cells; host or cells: human HT1080 cells, stably transduced (pLNCX2 retroviral vector)
Procedure: (§1) Cells (2×10^5) were seeded into 12-well dishes 1 day prior to assay. Ligand-binding buffer (minimal Eagle's medium containing 0.6% BSA with a different concentration of radioligand, 0.6 ml/well) was added to cell monolayers, in the absence or the presence of 500 nM unlabeled RAP or 500 nM unlabeled Mesd, followed with incubation for 0-4 hours at 4° C. Thereafter, overlying buffer containing unbound ligand was removed, and cell monolayers were washed and lysed in low-SDS lysis buffer (62.5 mM Tris-HCl pH 6.8, 0.2% SDS, 10% v/glycerol) and counted.
Receptor-associated protein (RAP) binds with high affinity to LRP, megalin, VLDLR and apoER2, and with a lower affinity to the LDLR (Bu, G., Int. Rev. Cytol. 209, 79-116. 2001). To determine whether RAP and Mesd bind to identical, overlapping, or different sites on the receptors, binding and competition analysis of these two chaperones with HT1080 cells stably expressing LRP6 was performed.
In FIG. 8A, binding of ^125I-RAP (5 nM) to LRP6-transduced HT1080 cells and the control cells was carried out for 4 hours at 4° C. in the absence (total) or presence of 500 nM RAP, or 500 nM Mesd. In FIG. 8B, binding of ^125I-Mesd (5 nM) to LRP6-transduced HT1080 cells was carried out for 2 hours at 4° C. in the absence (total) or presence of various concentrations of RAP or 500 nM Mesd. (C) LRP6-mediated ^125I-Mesd (5 nM) degradation was carried out for 4 hours at 37° C. in the absence or presence of 500 nM Mesd or 500 nM RAP. Values are the means of triple determinations with the s.d. indicated by error bars.

LRP6 [3] = assay: ^125I-Mesd cell surface ligand binding to LRP6-transduced HT1080 cells; parameters: species or system human; settings: HT1080 cells transduced with vector alone, ^125I-Mesd 5 nM, 4° C.
Procedure: To examine whether Mesd binds with high affinity to […] at the cell surface, cell surface ligand binding experiments were performed with cells stably transduced with LRP6 cDNA. Human HT1080 cells, which express undetectable levels of LRP6, were transduced with a viral vector alone (pLNCX2) or with vector containing LRP6 cDNA (Li, Y., Oncogene 23: 9129-9135, 2004) and used for ^125I-Mesd binding (FIG. 1A). ^125I-Mesd (5 nM) reached maximal binding after 2 hours incubation at 4° C. with LRP6-expressing HT1080 cells (FIG. 1A).
(A) Time course of ^125I-Mesd (5 nM) binding to LRP6-transduced HT1080 cells and the control cells. Assay was carried out for the indicated periods at 4° C. in the absence (total) or presence of 500 nM Mesd (non-specific). (B) Saturation binding of ^125I-Mesd to LRP6-transduced HT1080 cells and the control cells. Assay was carried out at indicated concentrations for 3 hours at 4° C. in the absence (total) or presence (non-specific) of 500 nM Mesd. (C) Scatchard plots of data in B. All values are the average of triple determinations with the s.d. indicated by error bars.
Cells (2×10^5) were seeded into 12-well dishes 1 day prior to assay. […] Thereafter, overlying buffer containing unbound ligand was removed, and cell monolayers were washed and lysed in low-SDS lysis buffer (62.5 mM Tris-HCl pH 6.8, 0.2% SDS, 10% v/glycerol) and counted.

LRP6 [4] = target: T1, LRP6; assay: ^125I-DKK1 binding to LRP6-transduced HT1080 cells; parameters: plasmid pCS-Myc-hLRP6 containing the full-length human LRP6 cDNA; HA; expressed in transfected cells; host or cells: human HT1080 cells, stably transduced (pLNCX2 retroviral vector); settings: 500 nM competitor, ^125I-DKK1 5 nM, 3 hours at 4° C.
Procedure: as §1
RAP is a receptor antagonist for members of the LDLR family, and is able to inhibit the binding of most known ligands of the LDLR family members. […] In these experiments, Serum-free conditioned medium was harvested from HEK293 cells transiently transfected with cDNA for human Myc-DKK1 and allowed to bind to LRP6-transduced HT1080 cells (B,C) and control cells (A) in the absence (A,B) or presence (C) of 1 μM Mesd. Cell-surface-bound Myc-tagged DKK proteins were fixed and detected by immunofluorescence staining with anti-Myc antibody. […] Binding of 125I-DKK1 (5 nM) to LRP6-transduced HT1080 cells or the control cells was carried out for 3 hours at 4° C. in the absence (total) or presence of 500 nM RAP or 500 nM Mesd. […] LRP6-mediated 125I-Mesd (5 nM) degradation was carried out for 4 hours at 37° C. in the absence or presence of 500 nM RAP or 500 nM Mesd. Values are the means of triple determinations with the s.d. indicated by error bars. Bar, 10 μm.

T1 sequence (O75581 20-1613): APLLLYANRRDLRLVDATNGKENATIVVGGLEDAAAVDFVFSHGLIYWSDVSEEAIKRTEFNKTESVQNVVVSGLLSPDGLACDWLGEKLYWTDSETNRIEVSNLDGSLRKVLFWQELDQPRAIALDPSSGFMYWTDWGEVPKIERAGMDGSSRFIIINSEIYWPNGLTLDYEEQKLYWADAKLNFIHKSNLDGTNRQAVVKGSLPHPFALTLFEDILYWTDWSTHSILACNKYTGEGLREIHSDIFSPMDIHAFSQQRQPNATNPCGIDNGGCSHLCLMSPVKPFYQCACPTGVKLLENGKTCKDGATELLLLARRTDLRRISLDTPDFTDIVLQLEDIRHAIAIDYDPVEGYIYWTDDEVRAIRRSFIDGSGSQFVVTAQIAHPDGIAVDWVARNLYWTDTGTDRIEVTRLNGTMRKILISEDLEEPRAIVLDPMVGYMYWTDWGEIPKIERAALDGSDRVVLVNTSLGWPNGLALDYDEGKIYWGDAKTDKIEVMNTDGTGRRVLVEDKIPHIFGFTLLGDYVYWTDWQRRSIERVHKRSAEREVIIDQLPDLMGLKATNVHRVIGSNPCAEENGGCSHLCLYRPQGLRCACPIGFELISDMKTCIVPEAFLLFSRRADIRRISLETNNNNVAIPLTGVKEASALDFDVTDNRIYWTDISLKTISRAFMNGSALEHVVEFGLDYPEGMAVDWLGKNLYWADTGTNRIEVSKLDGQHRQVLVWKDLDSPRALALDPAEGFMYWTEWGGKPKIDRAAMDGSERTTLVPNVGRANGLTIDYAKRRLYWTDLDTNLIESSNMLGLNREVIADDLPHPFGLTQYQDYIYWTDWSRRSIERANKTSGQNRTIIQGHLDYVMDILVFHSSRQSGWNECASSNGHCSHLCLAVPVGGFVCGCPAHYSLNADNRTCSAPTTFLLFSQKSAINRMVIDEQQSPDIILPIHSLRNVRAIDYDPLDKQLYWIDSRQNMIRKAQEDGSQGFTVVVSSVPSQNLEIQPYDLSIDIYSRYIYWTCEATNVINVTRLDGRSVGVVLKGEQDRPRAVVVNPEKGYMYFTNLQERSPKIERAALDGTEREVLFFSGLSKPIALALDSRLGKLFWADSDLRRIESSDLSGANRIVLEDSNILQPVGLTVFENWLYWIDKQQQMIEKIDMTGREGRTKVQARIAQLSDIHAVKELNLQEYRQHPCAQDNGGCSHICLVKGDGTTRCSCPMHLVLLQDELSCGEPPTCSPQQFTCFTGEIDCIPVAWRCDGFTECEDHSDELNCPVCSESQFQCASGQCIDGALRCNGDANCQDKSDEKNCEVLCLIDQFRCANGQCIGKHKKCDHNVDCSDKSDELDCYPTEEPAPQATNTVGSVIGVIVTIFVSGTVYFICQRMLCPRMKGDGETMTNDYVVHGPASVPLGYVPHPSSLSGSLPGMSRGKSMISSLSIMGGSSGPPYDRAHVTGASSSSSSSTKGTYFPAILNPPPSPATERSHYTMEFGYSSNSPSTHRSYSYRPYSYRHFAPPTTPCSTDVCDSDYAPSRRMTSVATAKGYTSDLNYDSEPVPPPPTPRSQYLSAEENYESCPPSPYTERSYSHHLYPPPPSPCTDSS

B1: Mesd: recombinant wild-type mouse Mesd, polyhistidine tail at the N-terminus, lacks the signal peptide, expressed in E. coli (protein)
chain: ADTPGEATPPPRKKKDIRDYNDADMARLLEQWEKDDDIEEGDLPEHKRPSAPIDFSKLDPGKPESILKMTKKGKTLMMFVTVSGNPTEKETEEITSLWQGSLFNANYDVQRFIVGSDRAIFMLRDGSYAWEIKDFLVSQDRCAEVTLEGQMYPGKGGGSKEKNKTKPEKAKKKEGDRKPRASKEDNRAGSRREDL
modifications: left off: small tags and cut ends
notes: recombinant wild-type mouse Mesd, polyhistidine tail at the N-terminus, lacks the signal peptide, expressed in E. coli
Amount of the mature form of LRP6 on coexpression (LRP6 [1]): significantly increased | Effect of excess unlabeled competitor on ^125I-RAP binding to control cells (LRP6 [2]; 500 nM competitor, control cells expressing vector alone, 4° C.): not | Effect on the LRP6-dependent increase of ^125I-RAP binding (LRP6 [2]; excess unlabeled Mesd (500 nM), 4 hours at 4° C.): abolished | ^125I-Mesd binding to control cells (pLNCX2) (LRP6 [3]): No significant ^125I-Mesd binding | Effect of excess unlabeled competitor on increased DKK1 binding (LRP6 [4]): abolished
